B1: LINE1-full (parent)
chain: UACGUAGGUGGUUUUCCCCUGAUAGUGCUAAGGGGGCCUGGAAGUUUGGACUGGGCAGAGCUCAACACAGCGUGGCAAAGUGGCUGUGGCUAGACUGCCUCUCUGGAUUCCUCGUCACUCAGCAGGGCAUCUCUGAGAGAAAUGCC

Variants of: B1
Experiment: self-cleavage, relative activity (ratio to wild type); higher = more cleavage; in vitro, sequencing; the parent is a self-cleaving ribozyme
UACGUAGGUGGUUUUCCCCUGAUAGUGCUAAGGGGGCCUGGAUGUUUGGACUGGGCAGAGCUCAACACAGCGUGGCAAAGUGGCUGUGGCUAGACUGCCUCUCUGGAUUCCUCGUCACUCAGCAGGGCAUAUCUGAGAGAAAUGCC gave a self-cleavage of 1.64.
Variant UACGUAGGUGGUUUUCCCCUGAUAGUGCUAAGGGGGCCUGGAUGUUUGGACUGGGCAGAGCCCAACACAGCGUGGCAAAGUGGCUGUGGCUAGACUGCCUCUCUGGAUUCCUCGUCACUCAGCAGGGCAUCUCUGAGAGAAAUGCC has a self-cleavage of 0.06.
UACGUAGGUGGUUUUCCCCUGAUAGUGCUAAGGGGGCCUGGAUGUUUGGACUGGGCAGAGCUCAACACAGCGUGGCAAAGUGGCUGUGGCUAGACUGCCUCUCUGGAUUCCUCGUCACUCAGCAGGGCAUCUCCGAGAGAAAUGCC gave a self-cleavage of 1.26.
Work on UACGUAGGUGGUUUUCCCCUGAUAGUGCUAAGGGGGCCUGGAUGUUUGGACUGGGCAGAGCUCAACACAGCGUGGCAAAGUGGCUGUGGCUAGACUGCCUCUCUGGAUUCCUCGUCACUCAGCAGGGCAUCUCUGAGAGACAUGCC yielded a self-cleavage of 2.43.
UACGUAGGUGGUUUUCCCCUGAUAGUGCUAAGGGGGCCUGGAUGUUUGGACUGGGCAGAGCUCAACACAGCGUGGCAAAGUGGCUGUGGCUAGACCGCCUCUCUGGAUUCCUCGUCACUCAGCAGGGCAUCUCUGAGAGAAAUGCC showed a self-cleavage of 0.1.
Work on UACGUAGGUGGUUUUCCCCUGAUAGUGCUAAGGGGGCCUGGAUGUUUGGACUGGGCAGAGCUCAACACAGCGUGGCAAAGUGGCUGUGGCUAGACUGCCUCUCUGGAUUCCUCGUCACUCAGCAGGGCAUCUCUUAGAGAAAUGCC yielded a self-cleavage of 1.43.
Variant UACGUAGGUGGUUUUCCCCUGAUAGUGCUAAGGGGGCCUGGAUGUUUGGACUGGGCAGAGCUCAACACAGCGUGGCAAAGUGGCUGUGGCUAGACUGCCUCUCUGGAUUCCUCGUUACUCAGCAGGGCAUCUCUGAGAGAAAUGCC has a self-cleavage of 1.12.
Variant UACGUAGGUGGUUUUCCCCUGAUAGUGCUAAGGGGGCCUGGAUGUUUGGACUGGGCAGAGCUCAACACAGCGUGGCAAAGUGGCUGAGGCUAGACUGCCUCUCUGGAUUCCUCGUCACUCAGCAGGGCAUCUCUGAGAGAAAUGCC has a self-cleavage of 0.03.
With UACGUAGGUGGUUUUCCCCUGAUAGUGCUAAGGGGGCCUGGAUGUUUGGACUGGGCAGAGCUCAACACAGCGUGGCAAAGUGGCUGUGGCUAGACUGCCUCUCUGGAUUCCCCGUCACUCAGCAGGGCAUCUCUGAGAGAAAUGCC the self-cleavage was 1.48.
UACGUAGGUGGUUUUCCCCUGAUAGUGCUAAGGGGGCCUGGAUGUUUGGACUGGGCAGAGCUCAACACAGCGUGGCAAAGUGGCUGUGGCUAGACUGCCUCUCUGGAUUCCUCGUCACUCAGCAGGGCUUCUCUGAGAGAAAUGCC showed a self-cleavage of 1.22.
In the case of UACGUAGGUGGUUUUCCCCUGAUAGUGCUAAGGGGGCCUGGAUGUUUGGACUGGGCAGAGCUCAACACAGCGUGGCAAAGUGGCUGUGGCUAGACUGCCUCUCUGGAUUCCUCGUCACUCAGCAGGGCAUCACUGAGAGAAAUGCC, the self-cleavage is reported as 1.15.
For UACGUAGGUGGUUUUCCCCUGAUAGUGCUAAGGGGGCCUGGAUGUUUGAACUGGGCAGAGCUCAACACAGCGUGGCAAAGUGGCUGUGGCUAGACUGCCUCUCUGGAUUCCUCGUCACUCAGCAGGGCAUCUCUGAGAGAAAUGCC, the self-cleavage was 1.34.
In the case of UACGUAGGUGGUUUUCCCCUGAUAGUGCUAAGGGGGCCUGGAUGCUUGGACUGGGCAGAGCUCAACACAGCGUGGCAAAGUGGCUGUGGCUAGACUGCCUCUCUGGAUUCCUCGUCACUCAGCAGGGCAUCUCUGAGAGAAAUGCC, the self-cleavage is reported as 0.87.
In the case of UACGUAGGUGGUUUUCCCCUGAUAGUGCUAAGGGGGCCUGGAUGUUUGGACUGGGCAGAGCUCAACACAGCGUGGCAAAGUGGCUGUGGCUAGACUGCCUCUCUGGAUUCCUCGUCACUCAGCAGGGCAUCUCUGAGAGUAAUGCC, the self-cleavage is reported as 1.49.
UACGUAGGUGGUUUUCCCCUGAUAGUGCUAAGGGGGCCUGGAUGUUUGGACUGGGCAGAGCUCAACACAGCGUGGCAAAGUGGCUGUGGCUAGACUGCCUCUCUGGAUUCCUCGUCACUCAGCAGGGCAUCUCUGAGAGCAAUGCC showed a self-cleavage of 1.58.
Work on UACGUAGGUGGUUUUCCCCUGAUAGUGCUAAGGGGGCCUGGAUGUUUGGACUGGGCAGAGCUCAACACAGCGUGGCAAAGUGGCUGUGGCUAGACUGCCUCUCUGGAUUCCUCGUCACUCAGCAGGGCAUCUCUGAGAGGAAUGCC yielded a self-cleavage of 1.02.
With UACGUAGGUGGUUUUCCCCUGAUAGUGCUAAGGGGGCCUGGAUGUUUGGACUGGGCAGAGCUCAACACAGCGUGGCAAAGUGGCUGUGGCUAGACUGCCUCUCUGGAAUCCUCGUCACUCAGCAGGGCAUCUCUGAGAGAAAUGCC the self-cleavage was 1.46.
In the case of UACGUAGGUGGUUUUCCCCUGAUAGUGCUAAGGGGGCCUGGAUGUUUGGACUGGGCAGAGCUCAACACAGCGUGGCAAAGUGGCUGUGGCUAGACUGCCUCUCUGGACUCCUCGUCACUCAGCAGGGCAUCUCUGAGAGAAAUGCC, the self-cleavage is reported as 1.08.
UACGUAGGUGGUUUUCCCCUGAUAGUGCUAAGGGGGCCUGGAUGUUUGGACUGGGCAGAGCUCAACACAGCGUGGCAAAGUGGCUGUGGCUAGACUGCCUCUCUGGUUUCCUCGUCACUCAGCAGGGCAUCUCUGAGAGAAAUGCC gave a self-cleavage of 1.81.

From the RNAGym collection of RNA variant scans (doi:10.7554/elife.90254)
